Biological target: alpha-thrombin (Homo sapiens, UniProt P00734;P00734 P00734:315-363,P00734:364-622)
Assay: SPR; apparent; solution competition vs immobilized consensus aptamer; same buffer, 25 C

**Q.** Which Kd does the source give for GGTTGGTT (ssDNA) [Compound 12 (single segment)] here?
**A.** 1500 nM

**Q.** GGTTGGTGTGGTTGG (structured_DNA) [Compound 10 (consensus thrombin aptamer)] was tested. Which Kd did it give?
**A.** 6 nM

Source: patent publication US5668265, “Bi-directional oligonucleotides that bind thrombin” (Becton Dickinson and Company)
